The results in this text go back to the nanobody polyreactivity screen of Harvey et al. (2022).

The nature of this series: yeast display, Sf9 membrane polyspecificity reagent, FACS + sequencing; frameworks hold sequencing errors. Summed up: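 Using colony PCR, genes from sorted yeast display clones were amplified, then sequenced on MiSeq at 2 × 250 and filtered by CDR length. The clones had been stained with 10% biotinylated, detergent-solubilized Sf9 membrane reagent for 1 hour at 4 °C and sorted by FACS into low and high (top ~1%) gates on anti-HA and streptavidin fluorescence. Polyreactivity labels come from the gate of origin.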
With “QVQLVESGGGLVQAGGSLRLSCAASGRIFGFNTMGWYRQAPGKERELVAAITSRDGRTYYADSVKGRFTISRDNAKNTVYLQMNSLKPEDTAVYYCATQYRWYAESHGLVTSVIMYSWGQGTQVTVSS”, the “polyreactivity (PSR sort gate)” value is listed as “low polyreactivity”. Then “QVQLVDSGGGLVQAGGSLRLSCAASGSIFVFYDMGWYSQAPGKEREMVATISSGGGGTYYTDSVKGRFTISRDNAKNTVYLQMNSLKPEDTAVYYCAAEGDKYGKGYGYWGQGTQVTVSS”, with “low polyreactivity”. Then “QVQLVESGGGLFQAGGSLRLSCAASGFTFNRNAMGWYRQAPGKERELVAAISWSGGSTYYADSVKGRFTISRDNAKNPVYLQMNSLKPEDTAVYYCAKGYRRVYGPFYYWGQGTQVTVSS”, with “low polyreactivity”. Consider “QVQLVESGGGLVQAGGSLRLSCAASGSTSTRYAMGWYRPAPGKERELVAAISKSGGRTYYADSVKGRFTMSRDNAKNTVYLQMNSLKPEDTAVYYCNTVPGRYRTFDYWGQGTQVTVSS”, for which the “polyreactivity (PSR sort gate)” value is “high polyreactivity”. Consider “QVQLVESGGGLVQAGGSHRVSCAASGSTFDRYTMGWYRQAPGTERELVAAISISGGSTYYADSVKGRFTISRDNAKNTVYVQMNSLKPEDTAVYYCAARLDTVTDYYYWGQGTQVNVSS”, for which the “polyreactivity (PSR sort gate)” value is “low polyreactivity”.

“QVQLVESGGGLVQAGGSLRLSCAASGITFYQYALGWYRQAPGKERELVARISYSGGSTYADSVKGRFTISRDNAKNTVYLQMNSLKPEDTAVYYCATAYRFRYGFANRYDYWGQGTQVTVSS”: the “polyreactivity (PSR sort gate)” value is recorded as “low polyreactivity”. Take “QVQLVESVGGLVQAGGSLRLSCSASGITFSYNAMGWYRQAPGKERELVAAISDIGGSTYYADSVKGRFTISRDNAKNTVYLQMNSLKPEDTAVYYCAADEYYQDEYDYWGQGTQVTVSS”: the “polyreactivity (PSR sort gate)” value is “low polyreactivity”. The result for “QVHLVESGGGLVQAGGSLRLSCAASVRIFQIYAMGWYRQAPGKERELVATISSGTRTYYADSVKGRFTISRDNAKNTVYLQMISLKPEDTAVYYCAKTYATRHAYWAGTRYEDDYWGQGTQVTVSS” reads “high polyreactivity”; that for “QVELVESGGGLVQAGGSLRLSCAASGFTFGYNAMGWYRQAPGKERELVAAIRLSGSSTYYADSVKGRFTISRDNAKNTVYLQMNSLNPEDTAVYYCAADGISHWLYRYDYWGQGTQVTVSS”, “low polyreactivity”. For “QVQLVESGGGLVQAGGSLRLSCAASGSTFIANTMGWYRQAPGKERELVAAITDSGGSTYYADSVKGRFTISRDNAKNTVYLQMNSLKPEDTAVYYCNADYVYVFIRAWSYDYWGQGTQVTVSS”, the “polyreactivity (PSR sort gate)” value is “low polyreactivity”. Take “QVQLVQSGVGLVQAGGSLRLSCAASGSIFSYYVMGWYRQAPGKERELVAAISWSGGSTYYADSVKGRFTISRDNAKNTVYLQMNSLKPEDTAVYYCAAGTYPYYWVQGTQVTVSS”: the “polyreactivity (PSR sort gate)” value was “low polyreactivity”. Then “RVQLVESAGGLLQAGGSLRLSCAASGRTFTLYAMGWDRQAPGKDRELVAAIRWSGSSTYYADSVKGRFTISRDYAKHTVYLQINSLKPEATAVYYCAARAGRYERYGYWGQGTQVTVSS”, with “high polyreactivity”; and “QVQLVESGGGLVQAGGSLRLSCAASGFMFSSYAMGWYRQAPGKERELVAAISWSDSSTYYADSVKGRFTISRDNAKNTVYLQMNSLKPEDTADYYCAAVIGPDVYYLLYDYWGQGTQVTVSS”, with “low polyreactivity”; and “QVQLVESGGGLVQAGGSLRLSCAASGFIFRDYVMGWYRQAPGKERELVAAISYRDGSTYYADSVKGRFTISRDNAKNTVYLQMNSLKPEDTAVYYCNAPGYQGYEYWGQGTQVTVSS”, with “low polyreactivity”. With “QVQLVESGGGLVQAGGSLTLSCAASGSTFDYNVMGWYRQAPGKERELVAAISNAGTTNYADSVKGRFTISRDNAKNTVYLLMNSLKPEDTAVYYCAADLGYYAAVTKYAEYDYWGQGTQVTVSS”, the “polyreactivity (PSR sort gate)” value was “low polyreactivity”. Then “QVQLVESGGGLVQAGGSLRLSCAASGSIFDYNVMGWSRQAPGKERELVAAITYNDGSTYYGDSVKGRFTISRDYAKNTVYLQMNSLKPEDTAVYYCNAEQTPSGLYDYRGVEGEMGYWGQGTQVTVSS”, with “low polyreactivity”; and “QVQLVETGGGIVQAGGRLRLSCAASGFTFYANTMGWYRQAPGKERELVATIRSTGSTKYADSVKGRFTISRDNAMNTVYLQMNSLNPEDTAVYYCAKRDRYYGVAVEGIRYDYWGQGTQVTVSS”, with “high polyreactivity”.

As for “QVQLVESGGGLVQAGGSLRLSCAASGFTFPYYAMGWYRQAPGKERELVAAISKSGGSTYYADSVKGRFTISRDNAKNTVYLQMNSLKPEDTAVYYCAAQGGSKYRGYYYWGQGTQVTVSS”, the “polyreactivity (PSR sort gate)” value is “high polyreactivity”.

On to “QVQLVESGGGLVQAGGSLRLSCAATGRIFGGYPMGWYRQAPGKERELVAVISGRGGSTYYADSVKGRFTISRDNAKNTVYLQMNSLIPEDTAVYYCAAVGYYAWTFGYDYWGQGTQVTVSS”, for which the “polyreactivity (PSR sort gate)” value is given as “high polyreactivity”. Then “QVQLVESGGGLVQAGGSLRLSCAASGYIFPGNAMGWYRQAPGKERELVATITDDTSTNYADSVKGRFTISRDNAKNTVYLQMNSLKPEDTAVYYCAADLYYWYPYLYDYWGQGTQVTVSS”, with “low polyreactivity”. With “QVQLVESGGGLVQAGGSLRLSCAASGSTFLTNTMGWYRQAPGKERELVAAITLRGGRTYYADSVKGRFTISRDNAKNTVYLQMNSLKPEDTAVYYCNARNYYYPSDRDYWGQGTQVTVSS”, the “polyreactivity (PSR sort gate)” value was “low polyreactivity”. The result for “QVQLVESGGGLVQAGGSLRLSCAASGSNFGWYTMGWYRQAPGKERELVAAITSRGTRTSYADSVKGRFTISRDYAKNTVYLQMNSLKPEDTAVYYCAARVFRGLGEYYWGQGTQVTVSS” reads “high polyreactivity”; that for “QVQLVESGGGLVQAGGSLRLSCAASGITFKSYTMGWYRQAPGKERELVAAITASGGTTRYADSVKGRFTISRDNAKNTVYLQMNSLKREDTAVYYCNALPFRYGKRRGYWGQGTQVTVSS”, “low polyreactivity”; that for “QVQLVESGGGLVQAGGSLRLSCAASGRSLRYYAMGWYRQAPGKERELVAVITRDGSTYYADSVKGRFTIPRDNAKNTVYLQMNSLKPEDTAVSYCVYGLTYRSFYYWGQGTQVTVSS”, “high polyreactivity”. The result for “QDQLVESGGGLVQAGGSLRLSCAASGSTFSIYAMGWYRQATGKERELVAAIPYSGGSTYYADSVKGRFTISRDNAKNTVYLQMNSLKPEDTAVYYCAAEVYDSRWWYSGATDDYWGQGTQVTVSS” reads “high polyreactivity”; that for “QVQLVESGGGLVQAGGSLRLRCAASGSTFYGYVMGWYRQAPGQERELVAAITNRAGSTYYADSVKARFTISRDNAKNTVYVQMNSLKPEDTAVYYCNARRPAKSRYRHVYWGQVTQVTVSS”, “high polyreactivity”; that for “QVQLVESGGGLVQAGGSLRLSCAASGFTFRAYAMGSYRQAPGKERELVAAISTGGGSTYYADSVKGRFTISRDNAKNTVYLQMNSLKPEDTAVYYCNALPQRRYYYWGQGTQVTVSS”, “high polyreactivity”. Then “QVQLVESGGGLVQAGGSLRLSCAASGSIFVYYAMGWYRQAPGKEREFVATISSSGGSTYYADSVKGRFTISRDNAKNTVYLQRNSLKPEDTAVYYCNRRYFFFYGHSFDYWGQGTQVTVSS”, with “high polyreactivity”; and “QVHLVESGGGLVQAGGSLRLSCAASGRTFIYYAMGWYRQAPGKERELVASITTGGRTYYADSVKGRFTISRDNAKNTVYLQMNSLKPEDSAVYYCAAEPHFFWYYHYVYGEHDYWGQGTQVTVSS”, with “high polyreactivity”; and “QVQLVESGGGLVQAGGSLRLSCAASGSIFGVYDMGWYRQAPGKERELVAVINSNGGSTYYADSVKGRFTISRDNAKNTVYLQMNSLKPEDTAVYYCAAERATVKFGYWGQGTQVTVSS”, with “low polyreactivity”. “QVQLVESGGGLVQAGGSLRLSCAASGGICRVYAMGWYRQAPGKERELVAAISRSGSSTYYADSVKGRFTISRDNAKNTVYLQMNSLKPEDTAVYYCNAYSQYWLGNNYWGQGTQVTVSS”: the “polyreactivity (PSR sort gate)” value is on record as “high polyreactivity”. The result for “QVQLVESGVGLVQAGGSLRLICAASGGTFEFYTMGRYRQAPGKERELVAVINASGDSTYYADSVKGRFTISRDNAKNTVYLQMNSLKPEDTAVYYCAADHRGEYDYWGQGTQVTGSS” reads “low polyreactivity”; that for “QVQLVESGGGLVQAGGSLRLSCAASGSIFSSYAMGWYRQAPGKERELVATITSSGGSTYYADSVKGRFTISRDNAKNTVYLQMNSLKPADTAVYYCAASYHTSYSLRRYYYWGQGTQVTVSS”, “low polyreactivity”; that for “QVQLVESGGGLVQAGGSLRLSCAASGSTFRYNAMGWYRQAPGKERELVATITGSGGSTYYADSVKGRFTISRDNAKNTVYLQMNSLKPEDTAVYYCAAAYRGRYSWYYFPRYAYWGQGTQVTVSS”, “high polyreactivity”. Then “QVQLVESGGGLVQAGGSLRLSCAASGSIFISYAMGWYRQAPGKERELVAAISSGGSTNYADSVKGRFTISRDNAKNTVYLQMNSLKPEDTAVYYCAADGWLWSFTGDGWWFVYWGQGTQVTVSS”, with “low polyreactivity”; and “QVQLVESGGGLVQAGASLRLSCAASGRTSYRYAMGWNRQAPGKERELVAAISFGGGSTYYADSVKGRFPISRDNAKNTVYLQMNSLKPEDTAFYYCATDRVKYRNIYTDTGFDYWGQGTQVTVSS”, with “high polyreactivity”. Regarding “QVQLEESGGGLVQAGGSLRLSCPASGSTFIVNVMGWYRQAPGKERELVAAINSGGSTDYADSVKGRFTISRDNAKNTVYLQMNSLKPEDTAVYYCNAYHIVIYDYWGQGTQVTVSS”, the “polyreactivity (PSR sort gate)” value is “low polyreactivity”.

With “QVQLVESGGGLVQAGGSLRLSCAASGRTFWAYALGWYRQGPGKERELVAAITTSGGSTNYADSVKGRFTISRDNAKNTVYVQLHSLKPEDTAVYYCNADPTYPVVNGVGYWGQGTQVTVSS”, the “polyreactivity (PSR sort gate)” value is reported as “low polyreactivity”.

In the case of “QVQLEESGGGLVQAGGSLRLSCAASGSTFTGYAMGWYRQAPGKERELVAAIPISGGRTFYADSVKGRFTISRDNAKNTVYLQMNSLKPEDTAFYYCAAYLRGSKYSFDYWGQGTQVTVSS”, the “polyreactivity (PSR sort gate)” value is given as “high polyreactivity”. Then “QVQLVESGGGLFQAGASLRLSCAASGFIFTDYAIGWDTQAPGKERELVAAISSGGRTYYADSVKGRFTISRDNAKNTVYLQMNSLKPEDTAVYYCARGGRAEGWGQGTQVTVSS”, with “high polyreactivity”.
